# Laboratory results taken from US20170114347.
# What was measured:
# Assay in all cases: cell_activity
# [1] = system: SOX2 TALE-VP16 (Xanthomonas); conditions: CITED; cited from earlier work
# [2] = system: OSGIN2 TALE-VP64 (Xanthomonas); conditions: CITED; U-2OS; cited from earlier work
# [3] = system: TALE-activator Ntf3-1 (Xanthomonas); conditions: NTF3 mRNA in 293 cells; weakest about 1000-fold; p65 version weaker
# [4] = system: TALE-activator Ntf3-2 (Xanthomonas); conditions: NTF3 mRNA in 293 cells; p65 version weaker
# [5] = system: TALE-activator Ntf3-3 (Xanthomonas); conditions: NTF3 mRNA in 293 cells; p65 version weaker
# [6] = system: IFNa1 TALE-VP16 (Xanthomonas); conditions: CITED; cited from earlier work
# [7] = system: IFNb1 TALE-VP16 (Xanthomonas); conditions: CITED; cited from earlier work
# [8] = system: TALE-activator Ntf3-4 (Xanthomonas); conditions: NTF3 mRNA in 293 cells; p65 version weaker
# [9] = system: PUMA TALE-VP16 (Xanthomonas); conditions: CITED; cited from earlier work
# [10] = system: KLF4 TALE-VP16 (Xanthomonas); conditions: CITED; cited from earlier work
# [11] = system: ZC3H10 TALE-VP64 (Xanthomonas); conditions: CITED; U-2OS; cited from earlier work
# [12] = system: TALE-activator Ntf3-5 (Xanthomonas); conditions: NTF3 mRNA in 293 cells; p65 version weaker
# [13] = system: NTF3 TALE-VP16 (Miller 2011) (Xanthomonas); conditions: CITED; HEK293; cited from earlier work
sequence,measurement,setting,value
TTTATTCCCTGACA (double strand) [SOX2 site],activity (fold activation),[1],5.5
TCCTCCCCACCTTTAATTTT (double strand) [OSGIN2 site],activity (fold activation),[2],4.8
TTCTGTTCACGGGACTCA (double strand) [Ntf3-1 site],activity (fold activation (approx.)),[3],> 1000
TCCGAACAGCTCCGCGCA (double strand) [Ntf3-2 site],activity (fold activation (approx.)),[4],> 1000
TTCCCCTGCTGGGTAGTG (double strand) [Ntf3-3 site],activity (fold activation (approx.)),[5],> 1000
TGGAAAGTGGCCCAGAAGCAT (double strand) [IFNa1 site],activity (fold activation),[6],3.1
TCTCATATAAATAGGCCAT (double strand) [IFNb1 site],activity (fold activation),[7],3.5
TACGCCTCAGACCTGATC (double strand) [Ntf3-4 site],activity (fold activation (approx.)),[8],> 1000
TACTTGGAGGCAGTCAAGT (double strand) [PUMA site],activity (fold activation),[9],1.5
TTCTTACTTATAAC (double strand) [KLF4 site],activity (fold activation),[10],2.2
TACCATATCCCATCCAACTC (double strand) [ZC3H10 site],activity (fold activation),[11],1.3
TCCCTCAATCTGGGAAAG (double strand) [Ntf3-5 site],activity (fold activation (approx.)),[12],> 1000
TGGAGCCATCTGGCCGGGT (double strand) [NTF3 site],activity (fold activation),[13],30
